Results published in article PMC9460772 (2022).

Target: PPIA (Homo sapiens, UniProt P62937)
Test: NMR

B1: PR20 proline-arginine dipeptide repeat (peptide)
chain: PRPRPRPRPRPRPRPRPRPRPRPRPRPRPRPRPRPRPRPR
Kd: 23 µM
